This passage reports percent reduction of the trimeric complex against wild type Abd-B results from paper doi:10.1101/2024.07.03.601496.

Experiment [1] addresses Exd (for EMSA) (Drosophila) (UniProt P40427). In words: native gel or EMSA. A general note: In EMSA bound probe runs differently from free probe, usually more slowly.
Experiment [2] has as its target Hth (for EMSA) (Drosophila) (UniProt O46339). The experiment can be described thus: native gel or EMSA.
Chain of UniProt O46339 (O46339 whole entry): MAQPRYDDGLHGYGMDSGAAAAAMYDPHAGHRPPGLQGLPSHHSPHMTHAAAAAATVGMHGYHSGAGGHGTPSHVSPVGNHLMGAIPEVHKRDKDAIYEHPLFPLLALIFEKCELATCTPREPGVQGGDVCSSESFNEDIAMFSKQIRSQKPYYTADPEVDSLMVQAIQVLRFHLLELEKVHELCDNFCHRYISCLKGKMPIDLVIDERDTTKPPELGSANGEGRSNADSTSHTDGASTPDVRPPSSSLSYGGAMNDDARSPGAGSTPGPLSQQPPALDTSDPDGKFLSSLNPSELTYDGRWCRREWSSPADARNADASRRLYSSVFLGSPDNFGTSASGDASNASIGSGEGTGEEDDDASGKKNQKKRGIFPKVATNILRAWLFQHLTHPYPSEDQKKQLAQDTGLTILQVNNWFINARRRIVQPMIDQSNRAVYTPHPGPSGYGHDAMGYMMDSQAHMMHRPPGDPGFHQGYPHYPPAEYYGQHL

Chain of UniProt P40427 (P40427 whole entry): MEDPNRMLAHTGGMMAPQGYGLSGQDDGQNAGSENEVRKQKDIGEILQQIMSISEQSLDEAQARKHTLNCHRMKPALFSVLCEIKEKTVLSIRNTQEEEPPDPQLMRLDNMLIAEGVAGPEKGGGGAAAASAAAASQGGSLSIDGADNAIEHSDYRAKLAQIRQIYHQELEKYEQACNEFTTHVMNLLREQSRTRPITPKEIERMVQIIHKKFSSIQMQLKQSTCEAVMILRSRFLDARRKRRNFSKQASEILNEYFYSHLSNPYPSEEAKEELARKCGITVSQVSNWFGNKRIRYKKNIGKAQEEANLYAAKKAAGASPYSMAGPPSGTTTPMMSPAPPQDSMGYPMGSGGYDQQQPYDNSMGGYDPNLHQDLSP

With “Abd-B^QR (QR>AA, for EMSA) (from UniProt P09087 1-493) (natural protein)”, the percent reduction of the trimeric complex against wild type Abd-B in experiment [1] and in experiment [2] was 25% throughout.
Turning to “Abd-B^W (W>A, for EMSA) (from UniProt P09087 1-493) (natural protein)”, the percent reduction of the trimeric complex against wild type Abd-B in experiment [1] and in experiment [2] was 56% each time.
